{"source": "patent US20080213176A1", "about": "“Compositions for Targeting Amine Oxidases in Vivo” (priority 2005, published 2008)", "key": {"VAP-1 [1]": {"target": "T1, VAP-1 (Homo sapiens, UniProt Q16853)", "T1 sequence (Q16853 1-763)": "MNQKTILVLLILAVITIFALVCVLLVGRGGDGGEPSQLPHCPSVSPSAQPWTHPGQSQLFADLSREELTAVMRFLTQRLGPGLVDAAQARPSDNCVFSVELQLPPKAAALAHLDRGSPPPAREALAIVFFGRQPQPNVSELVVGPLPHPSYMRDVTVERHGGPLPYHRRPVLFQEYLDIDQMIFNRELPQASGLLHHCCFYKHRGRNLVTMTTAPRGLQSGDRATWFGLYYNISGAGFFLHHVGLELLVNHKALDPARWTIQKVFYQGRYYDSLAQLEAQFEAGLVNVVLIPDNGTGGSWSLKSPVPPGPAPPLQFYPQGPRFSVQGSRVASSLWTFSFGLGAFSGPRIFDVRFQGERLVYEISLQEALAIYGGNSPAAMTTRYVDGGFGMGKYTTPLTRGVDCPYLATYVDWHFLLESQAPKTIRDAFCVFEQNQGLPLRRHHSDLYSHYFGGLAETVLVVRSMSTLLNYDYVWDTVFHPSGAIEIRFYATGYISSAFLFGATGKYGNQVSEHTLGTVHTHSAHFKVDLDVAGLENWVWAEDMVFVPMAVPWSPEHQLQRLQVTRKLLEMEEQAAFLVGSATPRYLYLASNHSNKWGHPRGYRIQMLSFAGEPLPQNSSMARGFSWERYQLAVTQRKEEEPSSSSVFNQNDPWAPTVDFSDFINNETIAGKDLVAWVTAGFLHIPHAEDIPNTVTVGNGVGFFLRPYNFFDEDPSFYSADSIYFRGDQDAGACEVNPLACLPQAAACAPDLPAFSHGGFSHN", "settings": "computer docking simulations, literature; cited from earlier work"}, "VAP-1 [2]": {"target": "T1, VAP-1", "assay": "Fluorometric detection of SSAO-mediated H2O2 formation (Amplex Red) with VAP-1 transfected CHO cells", "format": "biochemical", "parameters": "The CHO cells stably transfected with the cDNA encoding VAP-1 was used; expressed in transfected cells; host or cells: CHO cells, stably transfected", "settings": "for inhibition of the activity (VAP-1 SSAO): methylamine substrate", "description": "Cells. The CHO cells stably transfected with the cDNA encoding VAP-1 was used. The VAP-1 expression level of these cells was confirmed by staining with anti-VAP-1 monoclonal antibodies and subsequent flow cytometric analyses. The VAP-1 transfectants were grown into the confluence, detached, counted and equal numbers were divided to 96 well plates for enzymatic assays.\nFluorometric detection of SSAO-mediated H2O2 formation. Amine oxidase activities were measured using a highly sensitive and stable probe for H2O2 Amplex Red reagent (Molecular Probes Europe BV) as described previously (Salmi et al., 2001). The enzymes were incubated in white microplates in the final volume of 200 μl KRPG containing various concentrations of the tested peptides, 0.8 U/ml horseradish peroxidase, 60 μM Amplex Red reagent, and methylamine as preferred amine substrate for SSAO. Fluorescence intensity of the samples was measured using Tecan ULTRA fluoropolarometer (excitation/emission wavelengths 545/595 nm). To evaluate the amount of H2O2 formed via SSAO-mediated reaction, specific enzyme inhibitor semicarbazide (200 μM) was included in the control well, and these values were subtracted from the total amount of H2O2 formed. To test whether the peptides could interfere with fluorometric H2O2 detection, H2O2 concentrations were calculated from calibration curves generated by serial dilutions of standard H2O2 in the presence of various concentrations of peptides. All calibration curves show linear dependence of the measured fluorescence intensity vs. H2O2 concentration in the presence of peptides in concentrations less than 250 micrograms/ml."}, "[3]": {"settings": "peptide concentration 10 micrograms/ml"}, "[4]": {"settings": "peptide concentration 100 micrograms/ml"}}, "note": "“Also recorded” adds a separate entry of the source.", "data": [{"substance": "GGGGKGGGG (VAP-1 targeting peptide)", "values": [{"measurement": "binding to the active site of VAP-1 in docking", "setting": "VAP-1 [1]", "value": "bind optimally"}, {"measurement": "inhibition of the activity (VAP-1 SSAO)", "setting": "VAP-1 [2]; [3]", "value": 17.4, "unit": "%"}, {"measurement": "inhibition of the activity (VAP-1 SSAO)", "setting": "VAP-1 [2]; [4]", "value": 20.3, "unit": "%"}]}, {"substance": "GGGGKYGGG (VAP-1 targeting peptide)", "values": [{"measurement": "VAP-1 inhibiting activity compared with earlier lysine containing peptides", "setting": "VAP-1 [2]; comparison in words", "value": "stronger than that of the previously disclosed lysine containing peptides; also recorded: more potent inhibitor of VAP-1 than GGGGKGGGG"}, {"measurement": "inhibition of the activity (VAP-1 SSAO)", "setting": "VAP-1 [2]; [3]", "value": 33.5, "unit": "%"}, {"measurement": "inhibition of the activity (VAP-1 SSAO)", "setting": "VAP-1 [2]; [4]", "value": 42.8, "unit": "%"}]}, {"substance": "GGGKEGG (VAP-1 targeting peptide) [previously disclosed lysine containing peptide]", "values": [{"measurement": "binding to the active site of VAP-1 in docking", "setting": "VAP-1 [1]", "value": "bind optimally"}]}, {"substance": "GGGKGGG (VAP-1 targeting peptide) [previously disclosed lysine containing peptide]", "values": [{"measurement": "binding to the active site of VAP-1 in docking", "setting": "VAP-1 [1]", "value": "bind optimally"}]}, {"substance": "GGGKKGG (VAP-1 targeting peptide) [previously disclosed lysine containing peptide]", "values": [{"measurement": "binding to the active site of VAP-1 in docking", "setting": "VAP-1 [1]", "value": "bind optimally"}]}]}
